1 molecule from patent publication US20220056141A1 (DEUTSCHES KREBSFORSCHUNGSZENTRUM STIFTUNG DES OFFENTLICHEN …, published 2022) can be followed below.

Experiment [1] addresses T1, CD3 on Jurkat cells (human, UniProt P07766 23-207).
T1 construct: whole, on cells; also called Jurkat (CD3+); human cluster of differentiation 3 (CD3) antigen
As to the kind of experiment: flow cytometry on Jurkat cells (CD3+), 30 min incubation, PE-conjugated goat anti-human Fc-gamma secondary antibody. As to the method: (§1) In addition, antibody binding affinity was also tested using binding of the antibody to its target(s) as expressed on cells. Analyzed is the binding of CC-2 variants to Nalm16 cells expressing FLT3 (FIG. 4) or Jurkat cells expressing CD3 (FIG. 6). Variants V1 to V9 (with V6 being V6-V6) were produced after transient transfection of CHO cells using the insert sequences listed above. The antibodies were purified by protein A affinity- and size exclusion-chromatography. […] To measure antibody binding to FLT3 and CD3 NALM16 (FLT3+) and Jurkat (CD3+) cells were incubated with the respective variants for 30 min, washed, stained with a goat anti human Fcγ-specific and PE-conjugated secondary antibody (Jackson Immuno Research), washed again and analyzed by flow cytometry (FACSCalibur, BD Biosciences).
(Flow cytometry measures light scatter and fluorescence of single cells or particles in a stream.)

In experiment [2] the target is T1, CD3 on Jurkat cells. As to the kind of experiment: flow cytometry (value under the bar; by the legend the EC50 of the binding to Jurkat cells of FIG. 6). As to the method:
as §1

T1 sequence (P07766 23-207): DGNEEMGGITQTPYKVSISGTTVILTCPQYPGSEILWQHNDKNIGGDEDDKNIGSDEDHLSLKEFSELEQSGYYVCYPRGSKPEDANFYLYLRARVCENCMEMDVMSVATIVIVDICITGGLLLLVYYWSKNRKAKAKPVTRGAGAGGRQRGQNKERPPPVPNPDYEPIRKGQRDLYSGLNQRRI

B1: mouse FLT3 (4G8) x CD3 (humanized UCHT1) bispecific IgGsc antibody V6-V6 (bispecific antibody)
heavy: QVQLQQPGAELVKPGASLKLSCKSSGYTFTSYWMHWVRQRPGHGLEWIGEIDPSDSYKDYNQKFKDKATLTVDRSSNTAYMHLSSLTSDDSAVYYCARAITTTPFDFWGQGTTLTVSSASTKGPSVFPLAPSSKSTSGGTAALGCLVKDYFPEPVTVSWNSGALTSGVHTFPAVLQSSGLYSLSSVVTVPSSSLGTQTYICNVNHKPSNTKVDKKVEPKSCDKTHTCPPCPAPPVAGPSVFLFPPKPKDTLMISRTPEVTCVVVGVSHEDPEVKFNWYVDGVEVHNAKTKPREEQYNSTYRVVSVLTVLHQDWLNGKEYKCKVSNKQLPSPIEKTISKAKGQPREPQVYTLPPSRDELTKNQVSLTCLVKGFYPSDIAVEWESNGQPENNYKTTPPVLDSDGSFFLYSKLTVDKSRWQQGNVFSCSVMHEALHNHYTQKSLSLSPGKSGDIQMTQSPSSLSASVGDRVTITCRASQDIRNYLNWYQQKPGKAPKLLIYYTSRLESGVPSRFSGSGSGTDYTLTISSLQPEDFATYYCQQGNTLPWTFGQGTKVEIKGGGGSGGGGSGGGGSEVQLVESGGGLVQPGGSLRLSCAASGYSFTGYTMNWVRQAPGKGLEWVALINPYKGVSTYNQKFKDRFTISVDKSKNTAYLQMNSLRAEDTAVYYCARSGYYGDSDWYFDVWGQGTLVTVSS
light: DIVLTQSPATLSVTPGDSVSLSCRASQSISNNLHWYQQKSHESPRLLIKYASQSISGIPSRFSGSGSGTDFTLSINSVETEDFGVYFCQQSNTWPYTFGGGTKLEIKRTVAAPSVFIFPPSDEQLKSGTASVVCLLNNFYPREAKVQWKVDNALQSGNSQESVTEQDSKDSTYSLSSTLTLSKADYEKHKVYACEVTHQGLSSPVTKSFNRGEC
notes: also called CC-2; parental 4G8 x UCHT1
In the case of B1, the 50% effective concentration (EC50 (read off the curve)) in experiment [1] was roughly 10 nM. In experiment [2], this molecule had an EC50 of 10.8 nM.

A word on the EC50 (read off the curve): it is the concentration at which the effect is half-maximal. What is called EC50 is the midpoint of the concentration-response curve. A low value points to a more potent agent.
